Source: US20060078559A1 (EUROSCREEN S A, published 2006)
Where no end group is shown, it is not given here. [ ]: non-standard residue; d: D form. The star is where a group is joined. For = O=C*

T1: human formyl peptide receptor-like 2 (FPRL2) (human) (UniProt P25089)
T1 sequence: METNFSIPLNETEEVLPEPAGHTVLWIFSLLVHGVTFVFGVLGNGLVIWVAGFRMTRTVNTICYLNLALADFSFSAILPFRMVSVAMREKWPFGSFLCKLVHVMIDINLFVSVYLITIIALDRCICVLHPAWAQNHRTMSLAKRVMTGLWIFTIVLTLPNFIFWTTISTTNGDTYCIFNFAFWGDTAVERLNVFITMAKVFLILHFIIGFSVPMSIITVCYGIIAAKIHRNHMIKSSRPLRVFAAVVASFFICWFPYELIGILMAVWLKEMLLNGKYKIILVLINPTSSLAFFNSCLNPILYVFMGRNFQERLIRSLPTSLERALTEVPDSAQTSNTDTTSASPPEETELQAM

T2: human formyl peptide receptor-like 2 (FPRL2) (human, UniProt P25089 1-353)
T2 construct: Expressed on CHO-K1 cells with or without G alpha 16 and apoaequorin; Also detected on monocyte-derived dendritic cells; also called FPR-like 2; FPRL2 receptor
T2 sequence: T1 sequence

T3: human FPRL1 (FPR-like 1) (human, UniProt P25090 1-351)
T3 construct: Expressed on CHO-K1 cells; also called FPRL1 receptor
T3 sequence: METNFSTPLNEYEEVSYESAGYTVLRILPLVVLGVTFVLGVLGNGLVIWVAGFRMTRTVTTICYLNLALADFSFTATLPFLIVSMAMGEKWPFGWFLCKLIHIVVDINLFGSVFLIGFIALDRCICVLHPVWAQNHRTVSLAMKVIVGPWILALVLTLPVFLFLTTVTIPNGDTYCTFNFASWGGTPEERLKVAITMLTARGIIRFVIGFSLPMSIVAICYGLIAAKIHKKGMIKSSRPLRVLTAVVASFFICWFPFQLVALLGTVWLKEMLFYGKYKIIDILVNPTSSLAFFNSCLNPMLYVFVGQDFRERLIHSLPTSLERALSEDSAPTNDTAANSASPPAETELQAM

T4: human FPR (formyl peptide receptor) (human, UniProt P21462 1-350)
T4 chain: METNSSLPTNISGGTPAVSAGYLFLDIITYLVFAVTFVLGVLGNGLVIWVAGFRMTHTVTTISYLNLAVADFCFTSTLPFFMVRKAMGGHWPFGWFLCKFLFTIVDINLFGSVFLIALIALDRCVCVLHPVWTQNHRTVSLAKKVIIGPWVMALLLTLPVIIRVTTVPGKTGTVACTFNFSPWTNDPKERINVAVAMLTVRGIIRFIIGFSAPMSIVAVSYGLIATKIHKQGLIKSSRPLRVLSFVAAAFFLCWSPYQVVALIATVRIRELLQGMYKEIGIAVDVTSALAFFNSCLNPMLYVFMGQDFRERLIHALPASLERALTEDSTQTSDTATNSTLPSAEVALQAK

B1: WKYMVm (peptide)
peptide: WKYMV[dM]
notes: Bought from Phoenix Pharmaceuticals; also called W-hexapeptide; synthetic W peptide
B2: F2L[7-21] (peptide)
peptide: NSLFGSVETWPWQVL
notes: Synthetic; also called [7-21]F2L; truncated F2L variant lacking the first six aminoacids

Columns and labels:
[1] = target: T1, human formyl peptide receptor-like 2 (FPRL2) (human); experiment: cell-based or functional assay
[2] = target: T2, human formyl peptide receptor-like 2 …; experiment: competition binding on FPRL2-expressing CHO-K1 cells, tracer F2L-[125I]Tyr
Procedure: (§1) FPRL2, FPRL1 and FPR-expressing CHO-K1 cells were plated in 24 wells plates (200,000 cells per well for FPRL2, and 100,000 cells per well for the two other receptors). The next day, the cells were washed twice with a KRH buffer containing 280 mM saccharose and, for FPRL1 and FPR, 0.1% NaN₃. […] Cells were washed twice with ice cold buffer, total radioactivity was recovered with 1 M NaOH and counted in a gamma counter for 2 min.
The EC50 and IC50 parameters of the dose-response curves were determined by non-linear regression using the Graphpad Prism software. The results represent the mean pEC50 or pIC50 (−Log values of EC50 or IC50 expressed in Mol/L) ± s.e.m. for at least three independent experiments (n).

[3] = target: T2, human formyl peptide receptor-like 2 …; experiment: cell-based or functional assay
[4] = target: T3, human FPRL1 (FPR-like 1); experiment: competition radioligand binding on FPRL1-expressing CHO-K1 cells, tracer [125I]-WKYMVm
Procedure: as §1

[5] = target: T3, human FPRL1 (FPR-like 1); experiment: cell-based or functional assay
[6] = target: T4, human FPR (formyl peptide receptor); experiment: cell-based or functional assay
[7] = target: T4, human FPR (formyl peptide receptor); experiment: competition radioligand binding on FPR-expressing CHO-K1 cells, tracer [125I]-WKYMVm
Procedure: as §1

[8] = target: T3, human FPRL1 (FPR-like 1); experiment: cell-based or functional assay; remark: listed apart in the source
[9] = target: T4, human FPR (formyl peptide receptor); experiment: cell-based or functional assay
[10] = target: T4, human FPR (formyl peptide receptor); experiment: cell-based or functional assay
[11] = target: T1, human formyl peptide receptor-like 2 (FPRL2) (human); experiment: competition binding on FPRL2-expressing CHO-K1 cells, tracer F2L-[125I]Tyr
[12] = target: T3, human FPRL1 (FPR-like 1); experiment: cell-based or functional assay; remark: listed apart in the source
[13] = target: T2, human formyl peptide receptor-like 2 …; experiment: binding assay on FPRL2-expressing CHO-K1 cells

Molecule	pIC50 (binding assay) [2]	pEC50 (aequorin assay) (-Log of EC50 in Mol/L) [1]	pEC50 (cAMP assay) (-Log of EC50 in Mol/L) [1]	pEC50 (aequorin assay) [3]	EC50 (read off the curve), aequorin luminescence [FPRL1] [5]	EC50 (read off the curve), aequorin luminescence [FPR] [6]	pEC50 (aequorin assay) [8]	pEC50 (cAMP assay) [8]	pEC50 (aequorin assay) [9]	pEC50 (cAMP assay) [9]	also measured
A1, about 6 kD peptide of porcine heme-binding protein purified from porcine spleen (from UniProt P80015)											EC50, aequorin-based functional assay (native fraction A1) [1]: 200 nM
B1	< 6 -Log of IC50 in Mol/L	< 6	< 6	< 6 -Log of EC50 in Mol/L	~0.04 nM	~0.7 nM					IC50 (read off the curve) [4]: ~20 nM; IC50 (read off the curve) [7]: ~70 nM
For-Met-Leu-Phe [FMLP (formyl-methionine-leucyl-phenylalanine)]		< 6	< 6			~0.7 nM	5.94 -Log of EC50 in Mol/L	< 6 -Log of EC50 in Mol/L	9.39 -Log of EC50 in Mol/L	10.2 -Log of EC50 in Mol/L	EC50 (read off the curve), inhibition of cAMP accumulation [FPR] [10]: ~0.1 nM; pIC50 (binding assay) (-Log of IC50 in Mol/L) [11]: < 6
MLWRRKIGPQMTLSHAAG (also called CCL23-derived SHAAG peptide) [SHAAG peptide derived from CCL23 N-terminus]	< 6 -Log of IC50 in Mol/L			< 6 -Log of EC50 in Mol/L	~0.5 nM		9.27 -Log of EC50 in Mol/L	9.23 -Log of EC50 in Mol/L	< 6 -Log of EC50 in Mol/L	< 6 -Log of EC50 in Mol/L	pEC50 (cAMP assay) [3]: < 6 -Log of EC50 in Mol/L; EC50 (read off the curve), inhibition of cAMP accumulation [FPRL1] [12]: ~0.7 nM
B2											binding result [13]: no binding
